Reference: US20100291089A1, “LIGAND OF REGULATING IMMUNE RESPONSE, AND USE THEREOF IN TREATING AN IMMUNE RESPONSE-RELATED DISEASE” (POSTECH ACADEMY-INDUSTRY FOUNDATION, priority 2005, published 2010)
Where no end group is shown, it is not given here. [ ]: non-standard residue; d: D form.

B1: SAA: Serum amyloid A, multi-functional apolipoprotein, 12- to 14-kDa, SEQ ID NO:19 (protein, listed as Homo sapiens)
chain: MKLLTGLVFCSLVLGVSSRSFFSFLGEAFDGARDMWRAYSDMREANYIGSDKYFHARGNYDAAKRGPGGVWAAEAISDARENIQRFFGHGAEDSLADQAANEWGRSGKDPNHFRPAGLPEKY

Tests used:
RA FLS [1] = test: Intracellular Ca2+ measurement (Fluo3-AM) in RA FLS; assay type: cell-based, human
Procedure: The isolated FLS were incubated with Fluo3-AM working solution, containing 0.03% plutonic F-127 (the final concentration of Fluo3-AM was 20 μmol·L^−1) for 1 h at 37° C. After incubation, the cells were washed three times with normal or Na^+- and K^+-free Tyrode's solution, at 25° C. in order to remove the extracellular Fluo3-AM. Fluo3-AM fluorescence in the cells was elicited at 488 nm with a high-power Ar^+ laser, and the emission bands were detected at 530 nm with a photomultiplier. The fluorescence signal was detected using a confocal laser scanning system (Biorad Lasersharp MRA2, Oxfordshire, UK), equipped with a Nikon E-600 Eclipse microscope. The fluorescence intensity (FI) was measured both prior to (FI0) and after (FI) the addition of serum amyloid A (SAA) or phorbol-12-myristate-13-acetate (PMA) to either the normal the Na^+- and K^+-free Tyrode's solution. The change in [Ca^2+]i, was expressed in terms of the (FI−FI0)/FI0 ratio. A total of 50-120 images were scanned in each cell.

HUVECs = test: HUVEC wounding migration assay; assay type: cell-based, human; conditions: SAA 5 μM, WKYMVm 10 nM, VEGF 20 ng/ml; 12 h
Procedure: […] After 12 h of incubation, migration was quantitated via counts of the cells migrating beyond the reference line. For the tube formation assay, the HUVECs were seeded on a layer of previously polymerized Matrigel (BD Biosciences) with SAA (SEQ ID NO:19) (5 μg/ml), WKYMVm (SEQ ID NO:5) peptide (10 nM), a specific ligand for FPRL1 (32, 33) or VEGF (20 ng/ml). After 18 h of incubation, the cell morphology was visualized via phase-contrast microscopy and photographed.

C57BL/6 mice = test: Mouse Matrigel plug assay; assay type: in vivo; conditions: 7 days; for vessels in Matrigel (stained sections): SAA 80 μg or WKYMVm 1 μg
Procedure: C57BL/6 mice (7 weeks of age) were given s.c. injections of 500 μl of Matrigel containing PBS, SAA (SEQ ID NO:19) (80 μg), or WKYMVm (SEQ ID NO:5) (1 μg). After 7 days, the skins of the mice were pulled back to expose the Matrigel plugs, which remained intact. After the noting and photographing of any quantitative differences, hemoglobin levels were measured via the Drabkin method, using a Drabkin reagent kit 525 (Sigma) for the quantitative assessment of blood vessel formation. The hemoglobin concentration was calculated from the parallel assay of a known amount of hemoglobin. The matrigel plugs were fixed in 4% formalin, embedded with paraffin, and stained using hematoxylin and eosin.

OA FLS = test: Cell proliferation assay ([3H]-thymidine incorporation, cell counts) in OA FLS; assay type: cell-based, human; conditions: 72 h
Procedure: (§1) Fibroblast-like synoviocytes (FLS) were prepared from synovial samples obtained from patients suffering from RA and osteoarthritis (OA), all of whom were also undergoing total joint replacement surgery. The FLS were isolated from the synovial tissues in accordance with a previously described procedure (Cho, C. S., M. L. Cho, S. Y. Min, W. U. Kim, D. J. Min, S. S. Lee, S. H. Park, J. Choe, and H. Y. Kim. 2000. CD40 engagement on synovial fibroblast up-regulates production of vascular endothelial growth factor. J. Immunol. 164: 5055-5061).
(§2) In brief, fresh synovial tissues were minced into 2- to 3-mm pieces, then treated for 4 h with 4 mg/ml type I collagenase (Worthington Biochemical), and maintained in Dulbecco's Modified Eagle's Medium (DMEM) containing 10% FBS at 37° C. in an atmosphere containing 5% CO2. […] MH7A cells, the immortalized synoviocytes that harbor the SV40 T antigen, were grown in DMEM supplemented with 10% FBS, as previously described (Miyazawa, K, A. Mori, and H. Okudaira. 1998. Establishment and characterization of a novel human rheumatoid fibroblast-like synoviocyte line, MH7A, immortalized with SV40T antigen. J. Biochem. 124: 1153-1162), and then employed in some of the experiments. Human umbilical vein endothelial cells (HUVECs) were isolated from fresh human umbilical cords via collagenase (Worthington Biochemical) digestion, and then maintained in 20% FBS-containing M-199 medium (Sigma, St. Louis, Mo.), as previously described. All HUVECs were used after no more than five passages.
(§3) The RA FLS, OA FLS, and HUVECs were plated onto 24-well culture dishes at a density of 2×10^4 cells/well, and then permitted to attach overnight. After 24 h of serum starvation, the cells were treated for 72 h with a variety of mitogens. [^3H]-thymidine (1 μCi) was added to each of the wells prior to the final 6 h of incubation. Cell growth was also evaluated via cell counts. Control and mitogen-treated cells were harvested by trypsinization, and the number of cells was determined with a hemocytometer, under ×100 magnification.

RA FLS [2] = test: Western blot analysis of signaling molecules in RA FLS; assay type: cell-based, human; conditions: for time of peak cyclin D1 expression: SAA 3 μM or WKYMVm 10 nM
Procedure: RA FLS were incubated for 24 h in DMEM without FBS, and then SAA (SEQ ID NO:19) (3 μM) was added to RA-FLS for the indicated times. The treated RA-FLS was then washed twice in phosphate-buffered saline (PBS), dissolved in sample buffer (50 mM Tris-HCl, 100 mM NaCl, 0.1% sodium dodecyl sulfate (SDS), 1% NP-40, 50 mM NaF, 1 mM Na3VO4, 1 μg/ml aprotinin, 1 μg/ml pepstatin, and 1 μg/ml leupeptin), boiled, separated via SDS-polyacrylamide gel electrophoresis, and transferred to nitrocellulose membranes. After immunoblot analysis with phospho-ERK1/2 (Thr 202/Tyr 204), phospho-Akt (Ser 473), phospho-STAT3 (Tyr 705), Cylin D1, or Bcl-2 antibodies, the membranes were stripped and re-incubated with anti-Actin antibody in order to detect total protein amounts.

RA FLS [3] = test: Cell proliferation assay ([3H]-thymidine incorporation, cell counts) in RA FLS; assay type: cell-based, human; conditions: 72 h
Procedure: as §1, §2, §3

Row | Molecule | release of intracellular Ca2+ (RA FLS [1]; WKYMVm 10 nM) | migratory activity of HUVECs relative to control cells (HUVECs) | vessels in Matrigel (stained sections) (C57BL/6 mice) | DNA synthesis activity / proliferation ([3H]-thymidine incorporation) (OA FLS) | time of peak cyclin D1 expression (RA FLS [2]) | activation of ERK and Akt (RA FLS [2]; WKYMVm 1 to 1000 nM) | DNA synthesis activity / proliferation ([3H]-thymidine incorporation) (RA FLS [3]) | increase in intracellular Ca2+ compared to basal levels (RA FLS [1]; RA FLS, SAA 3 μM) | mean hemoglobin content of Matrigels (C57BL/6 mice; SAA 80 μg in Matrigel s.c.) | cell numbers (OA FLS) | concentration of maximal effect on DNA synthesis (OA FLS) | earliest detectable ERK1/2 and Akt phosphorylation after stimulation (RA FLS [2]; 3 μM SAA) | cell numbers (RA FLS [3]) | concentration of maximal effect on DNA synthesis (RA FLS [3])
1 | WKYMVm: specific agonist peptide for FPRL1, SEQ ID NO:5 (WKYMV[dM]; listed as Homo sapiens) | mimicked | approximately 3 times | more vessels | not OA FLS | 4 h | dose and time-dependent activation | dose-dependent increase |  |  |  |  |  |  | 
2 | B1 |  | approximately 3 times | more vessels | increased in a dose-dependent fashion | 4 h |  | increased in a dose-dependent fashion | 2.3 fold | 4.90 ± 0.66 g/dL | dose-dependently increased | 5 µM | 1 min | dose-dependently increased | 5 µM
